Data: publication PMC2172130

Biological target: tomosyn (expressed in Sf9 cells) (UniProt Q9WU70)
Assay: far-Western, overlay or dot blot

Sequence of UniProt Q9WU70 (Q9WU70 whole entry): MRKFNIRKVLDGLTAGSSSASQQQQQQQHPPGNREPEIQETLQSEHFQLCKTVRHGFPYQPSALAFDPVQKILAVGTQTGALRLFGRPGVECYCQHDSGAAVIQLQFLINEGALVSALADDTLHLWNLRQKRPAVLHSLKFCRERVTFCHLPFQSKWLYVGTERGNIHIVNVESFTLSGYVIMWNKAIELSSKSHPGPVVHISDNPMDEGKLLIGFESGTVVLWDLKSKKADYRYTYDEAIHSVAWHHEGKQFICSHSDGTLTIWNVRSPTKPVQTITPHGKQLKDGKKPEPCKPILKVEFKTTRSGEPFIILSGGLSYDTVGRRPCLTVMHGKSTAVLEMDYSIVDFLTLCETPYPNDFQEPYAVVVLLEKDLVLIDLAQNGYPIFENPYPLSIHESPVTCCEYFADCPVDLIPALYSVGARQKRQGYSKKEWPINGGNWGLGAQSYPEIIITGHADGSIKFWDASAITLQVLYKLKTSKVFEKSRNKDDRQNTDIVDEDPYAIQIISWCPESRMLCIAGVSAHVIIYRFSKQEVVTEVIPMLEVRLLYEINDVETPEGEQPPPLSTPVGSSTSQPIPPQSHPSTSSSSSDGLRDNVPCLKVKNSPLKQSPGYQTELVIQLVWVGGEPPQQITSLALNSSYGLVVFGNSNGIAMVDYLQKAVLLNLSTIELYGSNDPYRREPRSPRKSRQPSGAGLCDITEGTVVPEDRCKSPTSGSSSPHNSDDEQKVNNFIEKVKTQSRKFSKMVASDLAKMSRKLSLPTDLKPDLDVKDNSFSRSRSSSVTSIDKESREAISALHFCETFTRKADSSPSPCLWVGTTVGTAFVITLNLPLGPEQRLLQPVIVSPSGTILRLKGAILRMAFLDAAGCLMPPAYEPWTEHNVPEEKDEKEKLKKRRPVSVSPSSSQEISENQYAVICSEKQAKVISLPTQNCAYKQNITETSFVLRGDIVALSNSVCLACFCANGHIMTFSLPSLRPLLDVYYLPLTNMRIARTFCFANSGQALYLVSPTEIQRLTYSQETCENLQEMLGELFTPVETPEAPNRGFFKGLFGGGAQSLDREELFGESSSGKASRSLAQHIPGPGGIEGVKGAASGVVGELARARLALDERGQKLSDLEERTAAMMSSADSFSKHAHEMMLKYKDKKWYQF

## syntaxin-1, nonphosphorylated form (recombinant) (from UniProt P32851 1-288) (natural protein)
  Kd: 120 nM
